In test [1] the target is HLA-A*29:02. Nature of the test: IEDB peptide-MHC binding, purified MHC/competitive/fluorescence; ≥ and ≤ were set here for values at or beyond the usual limits of such assays. The settings on record: source organism: Mus musculus.
Test [2] deals with HLA-A*11:01. Described as above. The note with it: source organism: Mus musculus.
Test [3] addresses HLA-B*08:01. Described as above. The note with it: source organism: Mus musculus.
The target of test [4] is HLA-B*18:01. The test is described as above. The note with it: source organism: Mus musculus.
For test [5], the target named is HLA-B*07:02. The test is described as above. The note with it: source organism: Mus musculus.
The next test has as its target HLA-A*31:01. The test is described as above. The note with it: source organism: Mus musculus.
Test [6] addresses HLA-B*14:02. The test is described as above. The settings on record: source organism: Mus musculus.
Test [7] addresses HLA-A*02:01. The test is described as above. The settings on record: source organism: Mus musculus.
The target in test [8] is HLA-B*58:01. The test is described as above. The settings on record: source organism: Mus musculus.
The target in another test is HLA-A*25:01. Described as above. The settings on record: source organism: Mus musculus.
Test [9] concerns the target HLA-B*51:01. The description is as above. The settings on record: source organism: Mus musculus.
Test [10] addresses HLA-A*03:01. The test is described as above. The note with it: source organism: Mus musculus.
In test [11] the target is HLA-B*53:01. Described as above. The note with it: source organism: Mus musculus.
For another test, the target named is HLA-A*24:02. The test is described as above. The settings on record: source organism: Mus musculus.
The next test concerns the target HLA-B*40:02. Described as above. The note with it: source organism: Mus musculus.
Test [12] concerns the target HLA-A*01:01. The test is described as above. The note with it: source organism: Mus musculus.
The target of another test is HLA-B*44:03. The description is as above. The settings on record: source organism: Mus musculus.
Test [13] deals with HLA-A*68:02. The test is described as above. The settings on record: source organism: Mus musculus.
Another test deals with HLA-B*37:01. The test is described as above. The note with it: source organism: Mus musculus.
For another test, the target named is HLA-B*35:01. Described as above. The note with it: source organism: Mus musculus.
A further test addresses HLA-A*02:06. The test is described as follows: IEDB peptide-MHC binding, purified MHC/direct/fluorescence; filed as Kd, often an IC50 or EC50 that approximates it; ≥ and ≤ were set here for values at or beyond the usual limits of such assays. The note with it: source organism: Geobacillus sp. WCH70.
In test [14] the target is HLA-A*02:01. The test is described as above. The settings on record: source organism: Bacillus cereus.
The next test concerns the target HLA-A*02:12. The description is as above. The settings on record: source organism: Geobacillus sp. WCH70.
The target of a further test is HLA-A*02:03. The test is described as follows: IEDB peptide-MHC binding, purified MHC/competitive/fluorescence; filed as Kd, often an IC50 or EC50 that approximates it; ≥ and ≤ were set here for values at or beyond the usual limits of such assays. The settings on record: source organism: Bacillus anthracis str. A0488.
For another test, the target named is HLA-C*12:03. The test is described as follows: IEDB peptide-MHC binding, purified MHC/direct/fluorescence; filed as Kd, often an IC50 or EC50 that approximates it; ≥ and ≤ were set here for values at or beyond the usual limits of such assays. The settings on record: source organism: Bacillus anthracis str. A0488.
Test [15] concerns the target HLA-A*29:02. Nature of the test: IEDB peptide-MHC binding, purified MHC/competitive/fluorescence; filed as Kd, often an IC50 or EC50 that approximates it; ≥ and ≤ were set here for values at or beyond the usual limits of such assays. The note with it: source organism: Bacillus anthracis str. A0488.
Test [16] addresses HLA-A*11:01. Described as above. The note with it: source organism: Bacillus anthracis str. A0488.
For the next test, the target named is HLA-B*15:01. The description is as above. The settings on record: source organism: Bacillus anthracis str. A0488.
In test [17] the target is HLA-B*08:01. The description is as above. The note with it: source organism: Bacillus anthracis str. A0488.
Test [18] deals with HLA-B*18:01. The description is as above. The settings on record: source organism: Bacillus anthracis str. A0488.
For the next test, the target named is HLA-B*46:01. The test is described as above. The settings on record: source organism: Bacillus anthracis str. A0488.
Test [19] addresses HLA-B*07:02. The test is described as above. The settings on record: source organism: Bacillus anthracis str. A0488.
For test [20], the target named is HLA-B*14:02. Described as above. The note with it: source organism: Bacillus anthracis str. A0488.
For test [21], the target named is HLA-A*02:01. The description is as above. The settings on record: source organism: Bacillus anthracis str. A0488.
The target in a further test is HLA-A*24:03. Described as above. The note with it: source organism: Bacillus anthracis str. A0488.
The next test concerns the target HLA-A*66:01. Described as above. The note with it: source organism: Bacillus anthracis str. A0488.
The target in test [22] is HLA-B*58:01. The description is as above. The note with it: source organism: Bacillus anthracis str. A0488.
The next test deals with HLA-B*27:03. Described as above. The settings on record: source organism: Bacillus anthracis str. A0488.
In the next test the target is HLA-B*40:01. The description is as above. The note with it: source organism: Bacillus anthracis str. A0488.
The target of another test is HLA-B*27:05. Described as above. The settings on record: source organism: Bacillus anthracis str. A0488.
Another test deals with HLA-A*30:01. The test is described as above. The note with it: source organism: Bacillus anthracis str. A0488.
Another test addresses HLA-B*57:01. The description is as above. The settings on record: source organism: Bacillus anthracis str. A0488.
The target in the next test is HLA-B*44:02. The test is described as above. The note with it: source organism: Bacillus anthracis str. A0488.
The target of test [23] is HLA-B*51:01. The test is described as above. The settings on record: source organism: Bacillus anthracis str. A0488.
The target of test [24] is HLA-A*03:01. The description is as above. The settings on record: source organism: Bacillus anthracis str. A0488.
Test [25] has as its target HLA-B*53:01. The description is as above. The note with it: source organism: Bacillus anthracis str. A0488.
Test [26] deals with HLA-A*01:01. Described as above. The note with it: source organism: Bacillus anthracis str. A0488.
The target of the next test is HLA-B*39:01. The description is as above. The settings on record: source organism: Bacillus anthracis str. A0488.
A further test addresses HLA-A*26:01. Described as above. The settings on record: source organism: Bacillus anthracis str. A0488.
Test [27] has as its target HLA-A*68:02. The test is described as above. The note with it: source organism: Bacillus anthracis str. A0488.
The target in the next test is HLA-A*30:02. Described as above. The settings on record: source organism: Bacillus anthracis str. A0488.

Usually IC50 stands for the midpoint of a concentration-inhibition curve. Lower therefore signals inhibition by little substance. In general, Kd refers to the free concentration of one partner at which half of the binding sites on the other are occupied at equilibrium, for simple one-to-one binding.

A value given as a limit tells only on which side of the number the result lay.

Regarding VALFSSCPVAY, the IC50 with HLA-A*29:02 [1] is 0.0381 µM; with HLA-A*11:01 [2], not below 20 µM; with HLA-B*08:01 [3], not below 20 µM; in the test with HLA-B*18:01 [4] it was not below 20 µM; in the test with HLA-B*07:02 [5] it was not below 20 µM; with HLA-A*31:01 it was not below 20 µM. Further, the IC50 with HLA-B*14:02 [6], in the test with HLA-A*02:01 [7], with HLA-B*58:01 [8], with HLA-A*25:01, with HLA-B*51:01 [9] and in the test with HLA-A*03:01 [10] was not below 20 µM in each case. The IC50 with HLA-B*53:01 [11], in the test with HLA-A*24:02, with HLA-B*40:02, with HLA-A*01:01 [12], with HLA-B*44:03 and with HLA-A*68:02 [13] was not below 20 µM throughout. Moreover, the IC50 in the test with HLA-B*37:01 was not below 20 µM; with HLA-B*35:01, 0.0138 µM.
Turning to GLPESTPSL, the Kd with HLA-A*02:06 came to 0.014 µM; with HLA-A*02:01 [14], 0.0121 µM; in the test with HLA-A*02:12, 0.12 µM; in the test with HLA-A*02:03, 0.0214 µM.
In the case of FVMPIFEQI, the Kd was 0.068 µM with HLA-C*12:03; not below 5 µM with HLA-A*29:02 [15]; not below 5 µM in the test with HLA-A*11:01 [16]; not below 20 µM in the test with HLA-B*15:01; not below 5 µM in the test with HLA-B*08:01 [17]; not below 20 µM with HLA-B*18:01 [18]. Further, the Kd in the test with HLA-B*46:01 was not below 20 µM; with HLA-B*07:02 [19], not below 5 µM; with HLA-B*14:02 [20], not below 5 µM; with HLA-A*02:01 [21], not below 5 µM; in the test with HLA-A*24:03, 0.0032 µM; in the test with HLA-A*66:01, not below 5 µM. Also, the Kd is not below 5 µM in the test with HLA-B*58:01 [22]; not below 20 µM with HLA-B*27:03; not below 5 µM with HLA-B*40:01; not below 5 µM in the test with HLA-B*27:05; not below 5 µM with HLA-A*30:01; not below 20 µM with HLA-B*57:01. The Kd is not below 5 µM with HLA-B*44:02; not below 20 µM with HLA-B*51:01 [23]; not below 20 µM in the test with HLA-A*03:01 [24]; not below 5 µM with HLA-B*53:01 [25]; not below 5 µM in the test with HLA-A*01:01 [26]; not below 20 µM with HLA-B*39:01. In addition, the Kd was not below 20 µM in the test with HLA-A*26:01, 0.0003 µM in the test with HLA-A*68:02 [27] and not below 5 µM with HLA-A*30:02.

For the origin of these results see the Immune Epitope Database (IEDB).
